The source of these data is PMC10897158.

What all share (conditions): remark: other sources report otherwise
Assay [1] addresses T1, E2 ubiquitin-conjugating enzyme USE1 (endogenous, wild type) (human (endogenous in HEK293T, human fibroblasts and iPSC-derived neurons)), Q9H832.
T1 chain: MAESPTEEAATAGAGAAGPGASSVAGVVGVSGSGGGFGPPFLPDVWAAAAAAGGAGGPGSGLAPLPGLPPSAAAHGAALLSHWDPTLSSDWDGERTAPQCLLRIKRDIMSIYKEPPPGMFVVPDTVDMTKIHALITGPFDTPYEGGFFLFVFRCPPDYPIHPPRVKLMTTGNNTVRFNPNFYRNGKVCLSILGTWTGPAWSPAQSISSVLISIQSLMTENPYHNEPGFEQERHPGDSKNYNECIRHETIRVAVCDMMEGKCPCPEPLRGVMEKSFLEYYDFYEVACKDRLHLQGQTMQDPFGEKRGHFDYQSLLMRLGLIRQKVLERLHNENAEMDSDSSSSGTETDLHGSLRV
The experiment in a line: FRET or BRET; FLIM-FRET (two-photon FLIM) in iPSC-derived autonomic neurons of healthy controls; endogenous USE1 (donor, Alexa 488) and UBA6 (acceptor, Alexa 555); lifetime of donor only minus donor and acceptor.

The target in assay [2] is T1, E2 ubiquitin-conjugating enzyme USE1 …. The experiment in a line: FRET or BRET; FLIM-FRET (two-photon FLIM) in iPSC-derived autonomic neurons of CCHS patients (PHOX2B polyalanine expansion); endogenous USE1 (donor, Alexa 488) and UBA6 (acceptor, Alexa 555); lifetime of donor only minus donor and acceptor. (In BRET a luciferase serves as donor, and the signal depends on an acceptor being close.)

Assay [3] has the same target. The experiment in a line: FRET or BRET; FLIM-FRET (two-photon FLIM) in fixed WT and USE1 ΔPolyAla KO HEK293T cells; endogenous USE1 and UBA6 stained, secondary antibodies Alexa 488 (donor, USE1) and Alexa 555 (acceptor, UBA6); lifetime of donor only minus donor and acceptor.

B1: E1 ubiquitin-activating enzyme UBA6 (endogenous), A0AVT1 1-1052 (enzyme)
chain: MEGSEPVAAHQGEEASCSSWGTGSTNKNLPIMSTASVEIDDALYSRQRYVLGDTAMQKMAKSHVFLSGMGGLGLEIAKNLVLAGIKAVTIHDTEKCQAWDLGTNFFLSEDDVVNKRNRAEAVLKHIAELNPYVHVTSSSVPFNETTDLSFLDKYQCVVLTEMKLPLQKKINDFCRSQCPPIKFISADVHGIWSRLFCDFGDEFEVLDTTGEEPKEIFISNITQANPGIVTCLENHPHKLETGQFLTFREINGMTGLNGSIQQITVISPFSFSIGDTTELEPYLHGGIAVQVKTPKTVFFESLERQLKHPKCLIVDFSNPEAPLEIHTAMLALDQFQEKYSRKPNVGCQQDSEELLKLATSISETLEEKPDVNADIVHWLSWTAQGFLSPLAAAVGGVASQEVLKAVTGKFSPLCQWLYLEAADIVESLGKPECEEFLPRGDRYDALRACIGDTLCQKLQNLNIFLVGCGAIGCEMLKNFALLGVGTSKEKGMITVTDPDLIEKSNLNRQFLFRPHHIQKPKSYTAADATLKINSQIKIDAHLNKVCPTTETIYNDEFYTKQDVIITALDNVEARRYVDSRCLANLRPLLDSGTMGTKGHTEVIVPHLTESYNSHRDPPEEEIPFCTLKSFPAAIEHTIQWARDKFESSFSHKPSLFNKFWQTYSSAEEVLQKIQSGHSLEGCFQVIKLLSRRPRNWSQCVELARLKFEKYFNHKALQLLHCFPLDIRLKDGSLFWQSPKRPPSPIKFDLNEPLHLSFLQNAAKLYATVYCIPFAEEDLSADALLNILSEVKIQEFKPSNKVVQTDETARKPDHVPISSEDERNAIFQLEKAILSNEATKSDLQMAVLSFEKDDDHNGHIDFITAASNLRAKMYSIEPADRFKTKRIAGKIIPAIATTTATVSGLVALEMIKVTGGYPFEAYKNCFLNLAIPIVVFTETTEVRKTKIRNGISFTIWDRWTVHGKEDFTLLDFINAVKEKYGIEPTMVVQGVKMLYVPVMPGHAKRLKLTMHKLVKPTTEKKYVDLTVSFAPDIDGDEDLPGPPVRYYFSHDTD
On to B1, for which the difference in fluorescence lifetime (donor only minus donor and acceptor) in assay [1] is 0.253; in assay [2], 0.025. Also, the difference in fluorescence lifetime (donor only to donor and acceptor) in assay [3] stood at 0.099 ns.
